In patent publication US20050288489A1 (published 2005):
fluorescein = fluorescein label

Experiments:
[1] = target: fluorescein-labeled AID peptide, fluorescein-…-COOH; assay: fluorescence polarization, β protein titrated onto 0.5 nM fluorescein-labeled AID peptide
[2] = target: fluorescein-labeled AID peptide, fluorescein-…-COOH; assay: fluorescence polarization, equilibrium isotherm titration
[3] = target: fluorescein-labeled AID peptide, fluorescein-…-COOH; assay: fluorescence polarization
[4] = target: CaV1.2 (α1C) subunit expressed in Xenopus laevis oocytes by mRNA injection; assay: cell-based or functional assay
[5] = target: T1, full-length VDCC β2a mutant L392 changed to alanine (rabbit, UniProt P54288-2 1-606); assay: fluorescence polarization
T1 construct: mature

[6] = target: T2, full-length VDCC β2a mutant M246 changed to alanine (rabbit, UniProt P54288-2 1-606); assay: fluorescence polarization
T2 construct: mature

Row | Molecule | Kd [1] [nM] | Kd [2] [nM] | Kd [3] [nM] | Steady-state activation, V1/2 (mV) [4] [mV] | Steady-state activation, k (mV) [4] [mV] | Current amplitude (A), I at 20 mV [4] | Current amplitude (A), I at 30 mV [4] | Kd [5] [nM] | Kd [6] [nM]
1 | VDCC β2a linkerless core (domain I plus domain II, removable linker core after TEV digestion) (from UniProt P54288 51-172; P54288 230-449) | 6.6 | 6 to 15 |  |  |  |  |  |  | 
2 | full-length VDCC β2a subunit (rabbit, recombinant, histidine tag removed by TEV protease) (from UniProt P54288 44-632) | 16.1 | 6 to 15 | 26 |  |  |  |  |  | 
3 | full-length rat VDCC β3 subunit protein (recombinant, tag removed) (from UniProt P54287 1-484) |  |  |  | 10 | 10.6 |  |  |  | 
4 | full-length β2a protein as injected into oocytes (P122R) (from UniProt P54288 1-606) |  |  |  | 3.68 | 8.48 | -0.71 | -0.49 |  | 
5 | β2a core protein as injected into oocytes (P122R) (from UniProt P54288 25-422) |  |  |  | 6.84 | 8.43 | -0.87 | -0.7 |  | 
6 | β2a domain I + domain II prepared by proteolysis of full length protein and subsequent purification (injected) (from UniProt P54288 25-146; P54288 204-423) |  |  |  | 3.24 | 9.49 | -0.44 | -0.34 |  | 
7 | β2a domain I protein as injected into oocytes (P122R) (from UniProt P54288 25-146) |  |  |  | 24 | 12.2 | -0.16 | -0.18 |  | 
8 | β3 core protein (from UniProt P54287 21-370) |  |  |  | 10.7 | 10.1 | -0.45 | -0.41 |  | 
9 | β3 subunit expressed in oocytes by mRNA injection |  |  |  | 10.7 | 9.08 | -0.56 | -0.48 |  | 
10 | fluorescein-GGQQLEEDLRGYNSWITQGE-OH (also called labeled peptide; WT) [fluorescein-labeled AID peptide, fluorescein-GGQQLEEDLRGYNSWITQGE-COOH] |  |  |  |  |  |  |  | 340 | 1700
